Columns and labels:
[1] = biological target: KcsA-Kv1.3 (KcsA carrying a segment of the Kv1.3 pore loop)
[2] = biological target: KcsA-Kv1.3 (KcsA carrying a segment of the Kv1.3 pore loop); remark: listed apart in the source
[3] = biological target: Kv1.3 K+ channel, wild-type, expressed in cells (species not stated) (Homo sapiens (Human)) (UniProt P22001); assay: cell-based or functional assay
[4] = biological target: KcsA-Kv1.3 (KcsA carrying a segment of the Kv1.3 pore loop); remark: listed apart in the source
[5] = biological target: BK channel (species not stated); assay: cell-based or functional assay
Homo Kv1.3 (Homo) [6] = biological target: Homo Kv1.3 (Homo) (UniProt P22001); assay: cell-based or functional assay
Homo Kv1.3 (Homo), sequence (P22001 whole entry): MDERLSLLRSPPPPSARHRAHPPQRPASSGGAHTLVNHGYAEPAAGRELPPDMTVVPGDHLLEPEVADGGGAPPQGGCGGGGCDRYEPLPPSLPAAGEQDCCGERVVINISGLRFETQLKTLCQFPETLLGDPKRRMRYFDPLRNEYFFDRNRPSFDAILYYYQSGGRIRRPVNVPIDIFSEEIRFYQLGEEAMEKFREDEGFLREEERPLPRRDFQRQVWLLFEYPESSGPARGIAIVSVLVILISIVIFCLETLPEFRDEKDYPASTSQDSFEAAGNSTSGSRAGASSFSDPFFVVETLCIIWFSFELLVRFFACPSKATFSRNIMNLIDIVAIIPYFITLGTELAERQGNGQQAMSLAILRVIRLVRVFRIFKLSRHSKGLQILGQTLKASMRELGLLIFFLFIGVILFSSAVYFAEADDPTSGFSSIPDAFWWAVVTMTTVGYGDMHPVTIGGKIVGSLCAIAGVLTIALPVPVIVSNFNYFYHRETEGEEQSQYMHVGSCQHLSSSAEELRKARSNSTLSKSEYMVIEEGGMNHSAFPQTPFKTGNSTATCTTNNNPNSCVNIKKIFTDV

[7] = biological target: Kv1.1 K+ channel (species not stated); assay: cell-based or functional assay
[8] = biological target: Kv1.2 K+ channel (species not stated); assay: cell-based or functional assay
Homo Kv1.3 (Homo) [9] = biological target: Homo Kv1.3 (Homo) (UniProt P22001); assay: two-electrode voltage clamp, block of currents in Xenopus oocytes, dose-response fit
[10] = biological target: KcsA-Kv1.3 (KcsA carrying a segment of the Kv1.3 pore loop); remark: listed apart in the source
[11] = biological target: KcsA-Kv1.3 (KcsA carrying a segment of the Kv1.3 pore loop); assay: phage library panning on immobilized KcsA-1.3
[12] = biological target: Kv1.3 K+ channel, wild-type, expressed in cells (species not stated) (Homo sapiens (Human)) (UniProt P22001); assay: panning of a 2:2:96 phage mixture on HEK cells expressing Kv1.3
Target sequence in this assay (P22001 whole entry, form in doubt): as the sequence (P22001 whole entry) above

Rattus Kv1.2 (Rattus) [13] = biological target: Rattus Kv1.2 (Rattus) (UniProt P63142); assay: two-electrode voltage clamp, kinetics of block in Xenopus oocytes
Rattus Kv1.2 (Rattus), sequence (P63142 whole entry): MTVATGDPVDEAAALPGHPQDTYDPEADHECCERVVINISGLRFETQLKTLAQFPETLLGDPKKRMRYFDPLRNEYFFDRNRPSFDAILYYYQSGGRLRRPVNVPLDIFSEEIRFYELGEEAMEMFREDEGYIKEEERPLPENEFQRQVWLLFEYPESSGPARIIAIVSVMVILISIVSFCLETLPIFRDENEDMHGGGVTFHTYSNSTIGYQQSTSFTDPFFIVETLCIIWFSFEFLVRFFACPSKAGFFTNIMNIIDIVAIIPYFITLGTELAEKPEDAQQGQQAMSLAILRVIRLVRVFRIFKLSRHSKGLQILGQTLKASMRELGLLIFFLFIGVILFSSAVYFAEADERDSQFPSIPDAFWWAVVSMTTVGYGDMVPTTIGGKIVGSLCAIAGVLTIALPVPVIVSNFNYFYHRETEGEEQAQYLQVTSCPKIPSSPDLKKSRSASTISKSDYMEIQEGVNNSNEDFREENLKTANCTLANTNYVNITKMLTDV

Rattus Kv1.2 (Rattus) [14] = biological target: Rattus Kv1.2 (Rattus) (UniProt P63142); assay: two-electrode voltage clamp, block of currents in Xenopus oocytes, dose-response fit

fasciculin-2 phage (from UniProt P0C1Z0 1-61) (peptide)
Output (% Ligands) [1]: 0%

Kaliotoxin-1 phage (KTX-phage) (peptide)
Output (% Ligands) [1]: 100%
Fold Enrichment [2]: 3.6 fold

Ce3 (Centruroides elegans toxin Ce3) (peptide)
approximate IC50 (nM) of channel block [3]: 366 nM

Shk phage (sea anemone K+ channel toxin ShK on phage) (peptide)
% phages, OUTPUT [4]: 20%

Dendroaspis natriuretic peptide (DNP) phage (from UniProt P28374 1-38)
Output (% Ligands) [1]: 0%

mokatoxin-1 (MK-1), synthesized peptide
approximate IC50 (nM) of channel block [5]: > 1000 nM
decrease in IL-2 secretion by CD3/CD28-activated human T cells at 10 nM (Homo Kv1.3 (Homo) [6]): 50%
decrease in TNF-α secretion by CD3/CD28-activated human T cells at 10 nM (Homo Kv1.3 (Homo) [6]): 50%
lowest concentration inhibiting cytokine secretion by T cells (Homo Kv1.3 (Homo) [6]): 1 nM
approximate IC50 (nM) of channel block [7]: > 1000 nM
approximate IC50 (nM) of channel block [8]: 680 nM
approximate IC50 (nM) of channel block [3]: 3 nM
Ki (Homo Kv1.3 (Homo) [9]): 1 nM

mokatoxin-1-phage (peptide)
% of the phage isolated after two rounds of selection [10]: 60%
% of the eluted phage after two rounds of panning [11]: 16.6%
% of phages after the 2nd panning [12]: 15%

mokatoxin-1 (MK-1), synthesized peptide (peptide; other documents disagree on this pair)
koff (Rattus Kv1.2 (Rattus) [13]): 0.16 s⁻¹
kon (Rattus Kv1.2 (Rattus) [13]): 260000 M⁻¹ s⁻¹
Ki (Rattus Kv1.2 (Rattus) [14]): 620 nM
